Here are results for six molecules from patent publication US20210253718A1, “FRIZZLED5 PROTEIN-BINDING AGENTS” (Modmab Therapeutics Corporation, priority 2016, published 2021).

One assay deals with T1, FZD5 CRD (Homo sapiens, UniProt Q13467).
T1 construct: K29-T156; GPI anchor signal (C); expressed in transfected cells; host or cells: CHO cells, lentiviral pLenti-puro
T1 sequence (Q13467 29-156): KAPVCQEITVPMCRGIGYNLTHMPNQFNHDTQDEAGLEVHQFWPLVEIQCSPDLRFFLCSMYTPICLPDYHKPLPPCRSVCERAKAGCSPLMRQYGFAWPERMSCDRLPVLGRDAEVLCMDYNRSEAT
The assay can be described thus: Immunofluorescence of anti-FZD5 Fab binding to CHO cells overexpressing Frizzled CRD. On the set-up: key: −: no binding; +: very weak binder; ++: weak binder; +++: good binder; ++++: very good binder. Put shortly:
(§1)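 CHO cell lines each displaying a myc-tagged Frizzled CRD on the plasma membrane via GPI anchor. Recombinant anti-FZD5 Fab binding detected by immunofluorescence and flow cytometry.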

The target in another assay is T2, FZD1 CRD (Homo sapiens, UniProt Q9UP38).
T2 construct: D112-P238; GPI anchor signal (C); expressed in transfected cells; host or cells: CHO cells, lentiviral pLenti-puro
Described as above. On the set-up: key: −: no binding; +: very weak binder; ++: weak binder; +++: good binder; ++++: very good binder. Put shortly: as §1

The next assay addresses T3, FZD9 CRD (Homo sapiens, UniProt O00144).
T3 construct: G35-A161; GPI anchor signal (C); expressed in transfected cells; host or cells: CHO cells, lentiviral pLenti-puro
T3 sequence (O00144 35-161): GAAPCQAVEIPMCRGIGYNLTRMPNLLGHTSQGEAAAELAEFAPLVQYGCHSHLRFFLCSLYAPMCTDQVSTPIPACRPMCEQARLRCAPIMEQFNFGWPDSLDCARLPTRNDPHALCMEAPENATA
Described as above. Also on record: key: −: no binding; +: very weak binder; ++: weak binder; +++: good binder; ++++: very good binder. Put shortly:
as §1

A further assay deals with T4, FZD2 CRD (Homo sapiens, UniProt Q14332).
T4 construct: D35-P161; GPI anchor signal (C); expressed in transfected cells; host or cells: CHO cells, lentiviral pLenti-puro
The assay is described as above. On the set-up: key: −: no binding; +: very weak binder; ++: weak binder; +++: good binder; ++++: very good binder. The essentials:
as §1

A further assay concerns the target T5, FZD3 CRD (Homo sapiens, UniProt Q9NPG1).
T5 construct: CRD of FZD1, FZD2, FZD3, FZD4, FZD5, FZD6, FZD7, FZD8, FZD9 or FZD10; GPI anchor signal (C); expressed in transfected cells; host or cells: CHO cells, lentiviral pLenti-puro
T5 sequence (Q9NPG1 23-136 limits assumed): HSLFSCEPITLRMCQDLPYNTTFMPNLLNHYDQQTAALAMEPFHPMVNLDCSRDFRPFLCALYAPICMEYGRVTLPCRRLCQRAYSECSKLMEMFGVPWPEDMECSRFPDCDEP
The assay is described as above. Also on record: key: −: no binding; +: very weak binder; ++: weak binder; +++: good binder; ++++: very good binder. Put shortly:
as §1

For the next assay, the target named is T6, FZD8 CRD (Homo sapiens, UniProt Q9H461).
T6 construct: K31-D155; GPI anchor signal (C); expressed in transfected cells; host or cells: CHO cells, lentiviral pLenti-puro
T6 sequence (Q9H461 31-155): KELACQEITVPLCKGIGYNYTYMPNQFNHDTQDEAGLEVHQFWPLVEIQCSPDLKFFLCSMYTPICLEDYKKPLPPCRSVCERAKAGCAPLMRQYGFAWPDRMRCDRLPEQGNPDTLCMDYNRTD
The description is as above. On the set-up: key: −: no binding; +: very weak binder; ++: weak binder; +++: good binder; ++++: very good binder. Put shortly:
as §1

In a further assay the target is T7, FZD4 CRD (Homo sapiens, UniProt Q9ULV1).
T7 construct: E42-V167; GPI anchor signal (C); expressed in transfected cells; host or cells: CHO cells, lentiviral pLenti-puro
T7 sequence (Q9ULV1 42-167): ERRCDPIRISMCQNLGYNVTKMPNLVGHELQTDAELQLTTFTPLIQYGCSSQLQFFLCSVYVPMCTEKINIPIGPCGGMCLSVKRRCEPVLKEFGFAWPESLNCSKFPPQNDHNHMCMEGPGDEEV
Described as above. Also on record: key: −: no binding; +: very weak binder; ++: weak binder; +++: good binder; ++++: very good binder. The essentials:
as §1

The test system of assay [1] is CHO cells not expressing Frizzled CRD. The assay can be described thus: Flow cytometry of anti-FZD5 Fab binding to CHO cells not expressing Frizzled CRD (background). An excerpt:
The binding of anti-FZD5 Fabs to cell surface-expressed Frizzled protein was further determined for each member of the Frizzled family via flow cytometry and immunofluorescence analysis of a panel of 10 CHO cell lines, each ectopically over-expressing the extracellular cysteine-rich domain (CRD) of a different Frizzled protein family member.
Background: Flow cytometry measures light scatter and fluorescence of single cells or particles in a stream.

B1: Fab-2930: anti-FZD5 Fab with antibody variable region Fv-2930; CDR SEQ ID NOs: 35, 36, 69, 107, 145, 153 (antibody, V domains shown)
VH: EVQLVESGGGLVQPGGSLRLSCAASGFNLSYYYIHWVRQAPGKGLEWVASIYPYSGSTSYADSVKGRFTISADTSKNTAYLQMNSLRAEDTAVYYCARGALDYWGQGTLVTVSS
VL: DIQMTQSPSSLSASVGDRVTITCRASQSVSSAVAWYQQKPGKAPKLLIYSASSLYSGVPSRFSGSRSGTDFTLTISSLQPEDFATYYCQQWYGPYLITFGQGTKVEIK
In the case of B1, the “Immunofluorescence binding, Frizzled CRD overexpressed on CHO cells: FZD5” value (shortened to “Immunofluorescence binding … FZD5”) with FZD5 CRD was “++++”. Moreover, the “Immunofluorescence binding, Frizzled CRD overexpressed on CHO cells: FZD1” value (“Immunofluorescence binding … FZD1” below) with FZD1 CRD was “−”. Moreover, the “Immunofluorescence binding, Frizzled CRD overexpressed on CHO cells: FZD9” value (from here on “Immunofluorescence binding … FZD9”) with FZD9 CRD is “−”. Moreover, the “Immunofluorescence binding, Frizzled CRD overexpressed on CHO cells: FZD2” value (shortened to “Immunofluorescence binding … FZD2”) with FZD2 CRD is listed as “−”. Besides, in the assay with FZD3 CRD, the “Immunofluorescence binding, Frizzled CRD overexpressed on CHO cells: FZD3” value (“Immunofluorescence binding … FZD3” below) is “−”. In addition, the “Immunofluorescence binding, Frizzled CRD overexpressed on CHO cells: FZD8” value (from here on “Immunofluorescence binding … FZD8”) with FZD8 CRD was “+”. The “Immunofluorescence binding, Frizzled CRD overexpressed on CHO cells: FZD4” value (shortened to “Immunofluorescence binding … FZD4”) in the assay with FZD4 CRD is listed as “−”. Also, the “Median fluorescence, Frizzled CRD overexpressed on CHO cells: None” value (“Median fluorescence” below) in assay [1] worked out at 4.66.

B2: Fab-2928: anti-FZD5 Fab with antibody variable region Fv-2928; CDR SEQ ID NOs: 35, 36, 67, 105, 143, 175 (antibody, V domains shown)
VH: EVQLVESGGGLVQPGGSLRLSCAASGFNISYSSIHWVRQAPGKGLEWVASIYPSYSSTYYADSVKGRFTISADTSKNTAYLQMNSLRAEDTAVYYCARYYAMDYWGQGTLVTVSS
VL: DIQMTQSPSSLSASVGDRVTITCRASQSVSSAVAWYQQKPGKAPKLLIYSASSLYSGVPSRFSGSRSGTDFTLTISSLQPEDFATYYCQQAFYYPITFGQGTKVEIK
Regarding B2, the “Immunofluorescence binding … FZD5” value with FZD5 CRD is “++++”. Also, the “Immunofluorescence binding … FZD1” value with FZD1 CRD was “−”. In the assay with FZD9 CRD, the “Immunofluorescence binding … FZD9” value is reported as “−”. Also, the “Immunofluorescence binding … FZD2” value with FZD2 CRD was “−”. The “Immunofluorescence binding … FZD3” value with FZD3 CRD was “−”. Also, in the assay with FZD8 CRD, the “Immunofluorescence binding … FZD8” value is recorded as “−”. In addition, in the assay with FZD4 CRD, the “Immunofluorescence binding … FZD4” value is listed as “−”. The “Median fluorescence” value in assay [1] is listed as 3.68.

B3: Fab-2922: anti-FZD5 Fab with antibody variable region Fv-2922; CDR SEQ ID NOs: 35, 36, 61, 99, 137, 171 (antibody, V domains shown)
VH: EVQLVESGGGLVQPGGSLRLSCAASGFNIYSSYMHWVRQAPGKGLEWVASISPYSGYTSYADSVKGRFTISADTSKNTAYLQMNSLRAEDTAVYYCARTVRGSKKPYFSGWAMDYWGQGTLVTVSS
VL: DIQMTQSPSSLSASVGDRVTITCRASQSVSSAVAWYQQKPGKAPKLLIYSASSLYSGVPSRFSGSRSGTDFTLTISSLQPEDFATYYCQQSFVYPYLITFGQGTKVEIK
With B3, the “Immunofluorescence binding … FZD5” value with FZD5 CRD was “++++”. For the same molecule, in the assay with FZD1 CRD, the “Immunofluorescence binding … FZD1” value is “−”. The “Immunofluorescence binding … FZD9” value with FZD9 CRD is “−”. Further, the “Immunofluorescence binding … FZD2” value with FZD2 CRD is “−”. Also, in the assay with FZD3 CRD, the “Immunofluorescence binding … FZD3” value is “−”. Further, in the assay with FZD8 CRD, the “Immunofluorescence binding … FZD8” value is “+”. Besides, in the assay with FZD4 CRD, the “Immunofluorescence binding … FZD4” value is given as “−”. Further, the “Median fluorescence” value in assay [1] stood at 3.89.

B4: Fab-2927: anti-FZD5 Fab with antibody variable region Fv-2927; CDR SEQ ID NOs: 35, 36, 66, 104, 142, 174 (antibody, V domains shown)
VH: EVQLVESGGGLVQPGGSLRLSCAASGFNIYYSSMHWVRQAPGKGLEWVASIYPSYGYTSYADSVKGRFTISADTSKNTAYLQMNSLRAEDTAVYYCARYGYYGFDYWGQGTLVTVSS
VL: DIQMTQSPSSLSASVGDRVTITCRASQSVSSAVAWYQQKPGKAPKLLIYSASSLYSGVPSRFSGSRSGTDFTLTISSLQPEDFATYYCQQWGSHGYLITFGQGTKVEIK
In the case of B4, in the assay with FZD5 CRD, the “Immunofluorescence binding … FZD5” value was “++++”. Further, the “Immunofluorescence binding … FZD1” value in the assay with FZD1 CRD was “+++”. The “Immunofluorescence binding … FZD9” value with FZD9 CRD was “−”. Also, in the assay with FZD2 CRD, the “Immunofluorescence binding … FZD2” value is “+++”. Further, the “Immunofluorescence binding … FZD3” value in the assay with FZD3 CRD is given as “−”. Further, the “Immunofluorescence binding … FZD8” value with FZD8 CRD is given as “+”. The “Immunofluorescence binding … FZD4” value with FZD4 CRD is reported as “−”. In addition, in assay [1], the “Median fluorescence” value is 3.79.

B5: Fab-2924: anti-FZD5 Fab with antibody variable region Fv-2924; CDR SEQ ID NOs: 35, 36, 63, 101, 139, 153 (antibody, V domains shown)
VH: EVQLVESGGGLVQPGGSLRLSCAASGFNISYSYIHWVRQAPGKGLEWVASIYSYYSSTSYADSVKGRFTISADTSKNTAYLQMNSLRAEDTAVYYCARGALDYWGQGTLVTVSS
VL: DIQMTQSPSSLSASVGDRVTITCRASQSVSSAVAWYQQKPGKAPKLLIYSASSLYSGVPSRFSGSRSGTDFTLTISSLQPEDFATYYCQQWYSGHSLITFGQGTKVEIK
As to B5, the “Immunofluorescence binding … FZD5” value with FZD5 CRD is listed as “++++”. Moreover, the “Immunofluorescence binding … FZD1” value in the assay with FZD1 CRD was “−”. In the assay with FZD9 CRD, the “Immunofluorescence binding … FZD9” value is on record as “−”. Besides, the “Immunofluorescence binding … FZD2” value with FZD2 CRD is “−”. Besides, the “Immunofluorescence binding … FZD3” value with FZD3 CRD is given as “−”. For the same molecule, in the assay with FZD8 CRD, the “Immunofluorescence binding … FZD8” value was “+”. For the same molecule, the “Immunofluorescence binding … FZD4” value in the assay with FZD4 CRD is “−”. Moreover, in assay [1], the “Median fluorescence” value is given as 4.1.

B6: Fab-2929: anti-FZD5 Fab with antibody variable region Fv-2929; CDR SEQ ID NOs: 35, 36, 68, 106, 144, 162 (antibody, V domains shown)
VH: EVQLVESGGGLVQPGGSLRLSCAASGFNISYYYIHWVRQAPGKGLEWVASIYPSSSSTSYADSVKGRFTISADTSKNTAYLQMNSLRAEDTAVYYCARGAMDYWGQGTLVTVSS
VL: DIQMTQSPSSLSASVGDRVTITCRASQSVSSAVAWYQQKPGKAPKLLIYSASSLYSGVPSRFSGSRSGTDFTLTISSLQPEDFATYYCQQWYSSYGLITFGQGTKVEIK
For the molecule B6, in the assay with FZD5 CRD, the “Immunofluorescence binding … FZD5” value is reported as “++++”. In addition, the “Immunofluorescence binding … FZD1” value with FZD1 CRD is recorded as “−”. The “Immunofluorescence binding … FZD9” value in the assay with FZD9 CRD was “−”. Moreover, the “Immunofluorescence binding … FZD2” value in the assay with FZD2 CRD is given as “−”. For the same molecule, in the assay with FZD3 CRD, the “Immunofluorescence binding … FZD3” value is “−”. In the assay with FZD8 CRD, the “Immunofluorescence binding … FZD8” value is recorded as “−”. Moreover, in the assay with FZD4 CRD, the “Immunofluorescence binding … FZD4” value is “−”. Moreover, the “Median fluorescence” value in assay [1] was 3.19.
